Experimental data reported in US20220235142A1 (SHANGHAI GENBASE BIOTECHNOLOGY, published 2022).

What was measured:
[1] = target: T1, CEACAM1 protein overexpressed on SW620 cells (UniProt P13688 35-526, limits assumed); experiment: flow cytometry on SW620-CEACAM1 cells
T1 construct: whole, on cells; also called SW620-CEACAM1
T1 sequence (looked up): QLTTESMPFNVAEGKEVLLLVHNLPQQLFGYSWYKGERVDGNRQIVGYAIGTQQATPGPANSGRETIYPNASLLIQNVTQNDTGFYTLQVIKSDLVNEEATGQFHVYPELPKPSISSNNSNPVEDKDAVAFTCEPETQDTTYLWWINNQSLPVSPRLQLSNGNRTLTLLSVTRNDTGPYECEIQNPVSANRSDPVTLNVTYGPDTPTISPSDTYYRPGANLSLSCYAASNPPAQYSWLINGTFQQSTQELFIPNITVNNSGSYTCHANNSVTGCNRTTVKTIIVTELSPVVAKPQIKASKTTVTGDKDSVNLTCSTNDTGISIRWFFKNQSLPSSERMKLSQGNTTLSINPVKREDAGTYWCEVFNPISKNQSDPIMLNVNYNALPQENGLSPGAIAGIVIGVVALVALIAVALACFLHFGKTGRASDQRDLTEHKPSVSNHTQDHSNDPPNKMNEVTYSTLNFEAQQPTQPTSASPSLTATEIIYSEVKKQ
Method: (§1) Flow cytometry (FACS) was used to detect the binding of antibody to LOVO tumor cells that naturally expressed human CEACAM5 protein or cells that overexpressed different CEACAM proteins. In short, cells were first collected, washed with PBS, counted, and diluted to obtain 2*10⁶/ml cell suspension; 10 μl of an antibody working solution was added to 100 μl of the cell suspension, and incubated at 4° C. for 30 min in the dark; after washing twice with PBS, a corresponding fluorescent-labeled secondary antibody Goat-anti-Human IgG (H+L) (Invitrogen) was added, incubated at 4° C. for 30 min in the dark, after washing twice with PBS, it was suspended in 400 μl of FACS buffer, and the binding situations of the antibody to the cells were detected by FACS.
(§2) The binding situations of the supernatants of the chimeric antibody UM05-6L and the control antibody UM05-8 (anti-CEACAM5 antibody, prepared by the hybridoma method in our laboratory) to different cells at a concentration of 3 μg/mL were detected, in which SW620-CEACAM1 was a cell overexpressing CEACAM1 protein, SW620-CEACAM3 was a cell overexpressing CEACAM3 protein, CHO-CEACAM6 was a cell overexpressing CEACAM6 protein, CHO-CEACAM7 was a cell overexpressing CEACAM7 protein, and CHO-CEACAM8 was a cell overexpressing CEACAM8 protein. […]

[2] = target: T2, CEACAM3 protein overexpressed on SW620 cells (UniProt P40198 35-252, limits assumed); experiment: flow cytometry on SW620-CEACAM3 cells
T2 construct: whole, on cells; also called SW620-CEACAM3
T2 sequence (looked up): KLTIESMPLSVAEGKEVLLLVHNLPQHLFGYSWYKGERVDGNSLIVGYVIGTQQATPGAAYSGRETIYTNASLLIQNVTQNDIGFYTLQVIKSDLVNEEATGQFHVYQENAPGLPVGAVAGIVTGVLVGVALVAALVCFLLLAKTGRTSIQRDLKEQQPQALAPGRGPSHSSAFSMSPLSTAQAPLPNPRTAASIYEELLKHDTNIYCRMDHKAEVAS
Method: as §1, §2

[3] = target: T3, CEACAM7 protein overexpressed on CHO cells (UniProt Q14002 36-242, limits assumed); experiment: flow cytometry on CHO-CEACAM7 cells
T3 construct: whole, on cells; also called CHO-CEACAM7
T3 sequence (looked up): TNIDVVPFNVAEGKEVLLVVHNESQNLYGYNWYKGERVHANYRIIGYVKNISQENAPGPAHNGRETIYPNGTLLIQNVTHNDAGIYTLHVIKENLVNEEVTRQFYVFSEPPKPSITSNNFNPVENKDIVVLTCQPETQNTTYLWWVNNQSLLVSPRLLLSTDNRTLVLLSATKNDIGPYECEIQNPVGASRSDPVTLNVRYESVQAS
Method: as §1, §2

human CEACAM5 protein = target: T4, human CEACAM5 protein (human, UniProt P06731 35-685, limits assumed); experiment: ELISA, plate coated with human CEACAM5 protein at 1 µg/mL, goat anti-human IgG HRP
T4 construct: Protein used as ELISA coating; the immunogen was CEACAM5 protein (L2C01001) purified from tumor patients; also called CD66e; carcinoembryonic antigen cell adhesion molecule 5
T4 sequence (looked up): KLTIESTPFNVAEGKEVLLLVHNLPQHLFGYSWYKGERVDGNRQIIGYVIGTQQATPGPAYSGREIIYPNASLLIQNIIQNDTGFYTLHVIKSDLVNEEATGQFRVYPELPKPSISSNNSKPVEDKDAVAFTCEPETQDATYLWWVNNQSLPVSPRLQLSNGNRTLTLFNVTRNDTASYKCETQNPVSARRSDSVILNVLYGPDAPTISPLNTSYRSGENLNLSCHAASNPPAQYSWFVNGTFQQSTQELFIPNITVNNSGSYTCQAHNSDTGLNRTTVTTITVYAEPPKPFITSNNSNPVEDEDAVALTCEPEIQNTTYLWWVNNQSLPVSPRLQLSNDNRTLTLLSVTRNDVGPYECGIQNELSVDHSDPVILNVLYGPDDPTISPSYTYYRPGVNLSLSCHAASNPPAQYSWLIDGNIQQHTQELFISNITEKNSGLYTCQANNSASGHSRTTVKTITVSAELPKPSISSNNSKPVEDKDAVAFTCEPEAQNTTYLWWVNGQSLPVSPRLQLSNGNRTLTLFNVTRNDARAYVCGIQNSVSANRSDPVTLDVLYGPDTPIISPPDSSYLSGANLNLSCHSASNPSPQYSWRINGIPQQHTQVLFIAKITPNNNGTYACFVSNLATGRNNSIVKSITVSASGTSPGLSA
Method: On the next day, it was first washed with 300 μL of PBST (Tween20: 0.5‰) for 3 times, then blocked with 100 μL/well of 5% BSA/PBS for 1 hour, and shaken at room temperature. Washing was performed 3 times with 300 μL of PBST. A series of dilution solutions of antibody samples were prepared with PBS, and added at 100 μL/well to the 96-well plate and shaken at room temperature for 1 hour. Washing was performed 3 times with 300 μL of PBST. A secondary antibody goat anti-human IgG HRP solution was prepared, added at 100 μL/well to the 96-well plate, and shaken at room temperature for 30 minutes. Washing was performed 4 times with 300 μL of PBST. 100 μL/well TMB was added to perform color development for 20 min. 100 μL/well of 0.6N H₂SO₄ was added to stop the color development, and OD450 nm was detected.

[4] = target: T5, CEACAM6 protein overexpressed on CHO cells (UniProt P40199 35-320, limits assumed); experiment: flow cytometry on CHO-CEACAM6 cells
T5 construct: whole, on cells; also called CHO-CEACAM6
T5 sequence (looked up): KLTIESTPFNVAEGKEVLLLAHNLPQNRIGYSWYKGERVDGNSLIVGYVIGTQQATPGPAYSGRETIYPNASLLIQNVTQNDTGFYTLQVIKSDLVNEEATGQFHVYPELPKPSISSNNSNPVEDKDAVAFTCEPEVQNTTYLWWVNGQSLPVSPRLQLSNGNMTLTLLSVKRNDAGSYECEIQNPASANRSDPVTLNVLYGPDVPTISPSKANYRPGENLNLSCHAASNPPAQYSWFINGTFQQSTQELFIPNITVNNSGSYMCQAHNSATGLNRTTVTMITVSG
Method: as §1, §2

[5] = target: T6, human CEACAM5 protein naturally expressed on LOVO tumor cells (human, UniProt P06731 35-685); experiment: flow cytometry on LOVO tumor cells that naturally express human CEACAM5
T6 construct: whole, on cells; Cell-surface CEACAM5 on tumor cell lines; also called LOVO cells; CEACEM5
T6 sequence (looked up): T4 sequence (looked up)
Method: as §1
Furthermore, we used FACS to detect the EC50 of the chimeric antibody UM05-6L binding to LOVO tumor cells that naturally expressed human CEACAM5. […] Based on the above results, the chimeric antibody UM05-6L had excellent binding affinity, specificity and selectivity to CEACAM5.

B1: human-mouse chimeric antibody UM05-6L (antibody, human IgG1, kappa, V domains shown)
VH: EVQLQQSGPELVKPGASVKISCKASGYTFTDYYLNWVKQSPGKSLEWIGNINPINDFTTYNQKFKAKATLTVDKSSTTSYMALRSLTSEDSAVYYCTRYDGYFAYWGQGTTLTVSS
VL: DIQMNQSPSSLSASLGDTITITCHASQNINVWLSWYQQKPGNIPKLLIYKASNLHTGVPSRFSGSGSGTGFTLTISSLQPEDIATYYCQQGQSYPWTFGGGTKLEIKR
notes: expressed in HEK293 cells, purified on Protein A
[1]
  binding result: no binding (tested: 3 µg/mL)
[2]
  binding result: no binding (tested: 3 µg/mL)
[3]
  binding result: no binding (tested: 3 µg/mL)
Human CEACAM5 protein
  EC50: 0.0475 µg/mL
[4]
  binding result: no binding (tested: 3 µg/mL)
[5]
  EC50: 0.276 µg/mL
